Assay results published in a protein production outcome set (Wang et al. 2014).

Test: label from the status in PepcDB records

| Sequence | protein production |
| --- | --- |
| MSLHPNIQAVTDRIRKRSAPSRAAYLAGLDAALREGPFRSRLSCGNLAHGFAASEPGDKSRLRGAATPNLGIITAYNDMLSAHQPFEHYPQLIRETARTLGATAQVAGGVPAMCDGVTQGRAGMELSLFSRDNIAQATAIGLSHDMFDSVVYLGVCDKIVPGLLIGALAFGHLPAIFMPAGPMTPGIPNKQKAEVRERYAAGEATRAELLEAEASSYHSPGTCTFYGTANSNQVLLEAMGVQLPGASFVNPELPLRDALTREGTARALAISALGEDFRPFGRLIDERAIVNAVVALMATGGSTNHTIHWIAVARAAGIVLTWDDMDLISQTVPLLTRIYPNGEADVNRFQAAGGTAFVFRELMDAGYMHDDLPTVVEGGMRAYINEPRLQDGKVTYVPGTATTADDSVARPVGDAFESQGGLRLLRGNLGRSLIKLSAVKPQHRSIQAPAVVIDTPQVLNKLHAAGVLPHDFVVVLRYQGPRANGMPELHSMAPLLGLLQNQGRRVALVTDGRLSGASGKFPAAIHLTPEAARGGPIGRVREGDIVRLDGEAGTLEVLVSAEEWASREVAPNTSVAGNDLGRNLFAINRQVVGPADQGAISISCGPTHPDGALWSYDAEYELGADAAAAAAPHESKDA | failed |
| MSLIEIRKRTLIVETTYHENGPAPAQPLKLAASCAVIRNPYAGRYEPDLMPFMAELRSLGTLLATELVDTLGKDNIEVYSKAAIVGVDGEMEHGAVWHEAGGWAMRSVLGEPKAMVPAVKAVATAGYRMMVPVHYIHASYVRSHFNSIEIGIQDAPRPREILFALVMGTGARVHARLGGLTKEAVSVHDGQR | not failed |
| MSLIERVRTDLYRIPLPTRLTDSTHGAMMDFELITVRIEDSDGATGLGYTYTVNHGGAAVATMVDKDLRGCLLGADAEQIEKIWQSMWWRLHYAGRGGHATSAISAVDIALWDLKGIRARTPLWKLFGGYDPVVPVYAGGIDLELPVADLKTQADRFLAGGFRAIKMKVGRPDLKEDVDRVSALREHLGDSFPLMVDANMKWTVDGAIRAARALAPFDLHWIEEPTIPDDLVGNARIVRESGHTIAGGENLHTLYDFHNAVRAGSLTLPEPDVSNIGGYTTFRKVAALAEANNMLLTSHGVHDLTVHALASVPHRTYMEAHGFGLHAYMAEPMAVTDGCVSAPDRPGHGVVLDFERLGRLAVGEGHHHHHH | not failed |
| MSLIFTAIVVFLFILAIFDLIVGVSNDAVNFLNSAIGAKAAPFKIIVGVAALGVFCGAAMNNGMMEIARHGIFRPEHYTFSELMVVFLSVVITDVVLMDMFNSLGMPTSTTVSLIFELLGGSFFMAMTKVGGTVGFQDLLNTEKALSVILGIFLSVGIAFFFGMVVQYLSRLLFTFNYRRNLRWLAGLFGGVAVTSIIYFMLIKGLKGVSFMTEESTAWIAANTGRLVLYCLVVSIILMQVLYWLRVNVFKVIVLLGTFALAMAFAGNDLVNFIGVPLAGYSSYLDFNANGNGQYDTYLMGALNEPASTPVYFLVAAGIVMVYALITSKKAHNVIKTSVDLARQEEGEEMFGSSGLARSIVRFSTTTANAVSRIIPRPVGRWIDSRFNQDELIMAKGAAFDLVRASVNLVLAGLLIAFGTSLRLPLSTTYVAFMVAMGTSLADRAWSRESAVFRITGVFSVIGGWFITAGAAFILCFLVTMVNHFGGYPAMAGMIILAIFLLVRSHIRFDKKKKSETKDTVFIDMMASHDKEEIWQLLAKHIRQKQLALLDFAENNYMQMTDGFINEDLKRLRRSINDQNAERQMLKVNRRKETLGIRRIEEAKSVVKNTWFHLGCNSCEQIVFCLKRIAEPCKEHVDNNFNPLPKVCVSEFLAAREKLILYIKEAKLIVSNETDEILDPMTYRGKDIKKELKQLRKTQLSRIQQGASSLKISLVYLNLLQESQQLVNILDDLIHATEKLFDPVARIGTDEEFFN | failed |
| MSLILESLVTTLDEQGRINLAPLGPIVLPPQSPGGLPQFLLRPYEGSTTCDNLLASGNAVIHVIDDALLIAKTAIGKVDASDLVVPIPGLEDTHVRLKRCHRWFAVRVTQRAGTPPRHELTARCLASGLVDPFFGFNRAKHAVIEAAVAATRLHLLPPEEIEEELERARIAIEKTGGEPEREALQLIRRHVRESSISEGHHHHHH | not failed |
| MSLINARLIAFEDQWVPALNAPLKQAILADSQDAQLAAAMTYSVLAGGKRLRPLLTVATMQSLGVTFVPERHWRPVMALELLHTYSLIHDDLPAMDNDALRRGEPTNHVKFGAGMATLAGDGLLTLAFQWLTATDLPATMQAALVQALATAAGPSGMVAGQAKDIQSEHVNLPLSQLRVLHKEKTGALLHYAVQAGLILGQAPEAQWPAYLQFADAFGLAFQIYDDILDVVSSPAEMGKATQKDADEAKNTYPGKLGLIGANQALIDTIHSGQAALQGLPTSTQRDDLAAFFSYFDTERVNEGHHHHHH | not failed |
| MSLIPKFRAWDTYEKEMLENVTPLFDDSNSMIAIITDFQIKGSPGTSEIEIGSYDTTFNWDEFPYVIMQSTGLKDKNGVEIFEGDILVYDAPKKYAHRRSMHEIAYADGRFFWEFLDLVFCQSNILYRDGYLVIGNIHENPELLEGNEGHHHHHH | not failed |
| MSLIPKVSVIVPIYNVEKYLDQCVQALLAQTLSDIEIILIDDESPDNCPKICDDYAAQYPNIKVIHKKNAGLGMACNSGLDVATGEYVAFCDSDDYVDSDMYMTMYNVAQKYTCDAVFTGLKRITMAGIPTGTVTHQKEFKLYKNKNEIHTLLKDLIASDPYAREERAIQVSAKVVLYRRNLIEKKHLRFVSERILPSEDLIFNVDVLANSNIVCVLPQTFYNYRTNPISISEGHHHHHH | not failed |
| MSLKEFKIGWFATILGTGGVAIASLPYFPVLSVVLTYLLTAIFVILTAVWLAKIIRYPRVVAAELGHFVMGNFYPLQPISAVILAILYRKLGIPLDLPLLAYGAGLILVLTVYLSYHFFANVKAEIHHIHGGWFIPPVSTILVTDALLQYSPNETFFVTSLIYFGIGLMLFLFISTILFLRLVNHELPVFELAPTNFILLAPIGILIVDFTLIAKHAEAIFSANLVPLALIASISLWGFGLWALAVNILLLLRYLRQEMPFFLGWWSYVFPTAAYTLSTIALSHFVPVFSYAATALYAFLIAAWAIIGVRTVGIAIRGA | failed |
| MSLKFFLKAYARIAAIAAAVVLVCVLLFNGINSVREQYWHEQAMTPVMRWLAAAPDPLSQYHWMAPMFGLHSGVAADFGLSQVALERLGYGQVVAQSTDSGYGYYVLGLGGEVLGIHLEQPYRDLARAISLMVRWHLDTSPAAQRADVAQQLAESLNLDIRLVQKTEDLPDQQALERLGDTGLAIFEHGDNRARALVRLSEGALVVVTLPPPFNPWGWPIILLLTAVVGGVLAVALFLALRFVESHLRKVESVAIRIARGEMGARVESEQGTLVSRLGTSFNGMAEHIQRLVQVQREMIHAVSHELRTPVARIRFGVQMIESGSTQEVLEKQLEGIDGDIQELDELIDEILTYARLEQGGPVFSLREGSVTDIVRQVVSEQRLIREGVDIECQIDEASERWAQADMEPRYIHRAIQNLVGNAARYAAGRVQVSCHLDEDNCRIDVEDDGPGIPEQDWEKVFTAFARLDDSRTRTSGGYGLGLSIVRRILYWHGGQAFVGRSDVLGGARFSLVWPRLKPADPDL | failed |
| MSLKIKHEHIRMAMNAWAHPDGEKVPAAEITRAYFELGMTFPELYDDSHPEALARNTQKIFRWVEKDTPDAVEKIQALLPAIEKSMPPLLVARMRSHSSAYFRELVETRERLVRDADDFVAVAIAGFNQMNRGGPAGNIVAVHEGHHHHHH | not failed |
| MSLKIKNILLSGGSGKRLWPLSRSLYPKQFLKLFDHKSLFELSFKRNASLVDETLIVCNEKHYFLALEEIKNEIKNKSVGFLLESLSKNTANAIALSALMSDKEDLLIVTPSDHLIKDLQAYENAIKKAIDLAQKGFLVTFGVSIDKPNTEFGYIESPNGLDVKRFIEKPSLDKAIEFQKSGGFYFNSGMFVFQAGVFLDELKKHAPTILKGCERAFESLENAYFFEKKIARLSEKSMQDLEDMSIDIALMQQSHKIKMVELNAKWSDLGNFNALFEEAANEPKENVSLNQTPVFAKESEEGHHHHHH | not failed |
| MSLKKINTVLAAAFILFILWFGAEFILSPETTAPGFGLPSWPSGDGDGFLIIKGIRDVVLALVLGILLVTGHRRALGWALLVEALAAYGDMTAVLAHHGSVATALGVHCLTATLMVVNGLLIMRETRKVAAAPATPAPQPA | failed |
| MSLKRRQTNIIGVYLADYGGSFYGELLEGIKKGLALFDYEMIVCSGKKSHLFIPEKMVDGAIILDWTFPTKEIEKFAERGHSIVVLDRTTEHRNIRQVLLDNRGGATQAIEQFVNVGSKKVLLLSGPEKGYDSQERLAVSTRELTRFGIPYEIIQGDFTEPSGYAAAKKILSQPQTEPVDVFAFNDEMAIGVYKYVAETNYQMGKDIRIIGFDNSELGAFVQPRLATIAYSKHRWGMVAAEKIIHLMRGEAAESEHIYTRFIEGESFPSEGHHHHHH | not failed |
| MSLKSIEVVAAVIRLGEKYLCVQRGQTKFSYTSFRYEFPGGKVEEGESLQEALQREIMEEMDYVIEVGEKLLTVHHTYPDFEITMHAFLCHPVGQRYVLKEHIAAQWLSTREMAILDWAEADKPIVRKISEQEGHHHHHH | not failed |
| MSLKVPGALPLLFLAACSHLPAKTPLTAEKPAEKKESEQSRVPSQDLTPSMLFDFLLAETALQRGDTEIGLRTYLKLAKNTQDPRVAQRATEAALQARQPAFALEAAKIWTELDPESIPARQMMAALLVHFDRLDEARPHLEKLLAVAGDKIDDAFMQLNSLLVRSPNKNAIFELVKQLAQPYPDLPEAHFAESQAAWFAERFDIALEEMKKALALRPEWEMAAIYEGRILSRESNARAIEFFDDYLKRYPKANDTRITYARLLLAERDYSKAREQFQKLLTENPDNPDVAIAVGLLSLELQNYDVAESNFKRALELGYRDPGMVRFYLGGISEKKQQIPQALNWYRSVTEGTQFIPAQIKYAILLSRTGKTKEGLHHLQQLPVANDQQRAQVIIAEAQLLRESGAYKKAFQLLSSSLEKLPDSPELLYDRALAAEKIGKADIMEQDLRKLIELRPDHAHAYNALGYGIAEHSSKRLPEALELIEKAIKLSPIDPYIIDSLGWVHYRMGDINQGLSYLRQAFAMNPDPEIAAHLGEVLWVQGMKDEAKEIWQTALKNHPGNEALIGVMKKFMK | failed |
| MSLKVVIGYLALDDWEFESLFPTIEWKYLTHINASFARVKADGTLNINPVRKRIESVRETAHKHNVKILISLAKNSPGEFTTAINDPKARKELIQQIIAFTKEYKLDGFDIDYEEYDNWDKNFPSLLVFARGLYLAKEKNMLMTCAVNSRWLNYGTEWEQYFDYINLMSYDRGAFTDKPVQHASYDDFVKDLKYWNEQCRASKSKIVGGLPFYGYSWEESLQGAVDDVRGIRYSGILKHLGNEAADKDNIGKTYYNGRPTIANKCKFIKENDYAGVMIWQLFQDAHNDNYDLKLINVVGREMMEEGHHHHHH | not failed |
| MSLKVVSVDTLCCDAGWRNYHFVKLTTDEGIVGWSEFDEGFGSPGVTAVIEQLGKRLVGASVMEHERFFAEAYCLTRPATGGVVSEGIGAIENALLDAKAKTLNVPCYELLGGKLRDRVPVYWSHCPTWRINHPKFFGPPVTDLDGVKRTAEEARERQFRAIKTNIFIHDDGPLHAWRPGFAVPFQPALNVDRKVLRNLRAHLEALRDGAGPDVEILLDLNFNAKPEGYLKILRELADFDLFWVEIDSYSPQGLAYVRNHSPHPISSCETLFGIREFKPFFDANAVDVAIVDTIWNGVWQSMKIAAFADAHDINVAPHNFYGHLCTMINANFAAAVPNLRIMETDIDRLAWEDELFTHAPEYQNGELIIPDRPGWGTDPVEEAILAHPPKVMGGLLQYKRSEGHHHHHH | not failed |
| MSLLEQLDKNIAASGGLIVSCQPVPGSPLDKPEIVAAMALAAEQAGAVAVRIEGIDNLRMTRSLVSVPIIGIIKRDLDESPVRITPFLDDVDALAQAGAAIIAVDGTARQRPVAVEALLARIHHHHLLAMADCSSVDDGLACQRLGADIIGTTMSGYTTPDTPEEPDLPLVKALHDAGCRVIAEGRYNSPALAAEAIRYGAWAVTVGSAITRLEHICGWYNDALKKAAS | not failed |
